The source of these data is paper PMC9887883, “A family of C. elegans VASA homologs control Argonaute pathway specificity and promote transgenerational silencing”.

In this data set the target is T1, GLH-1(DQAD) (Caenorhabditis elegans, UniProt P34689 1-763, E500Q).
T1 sequence: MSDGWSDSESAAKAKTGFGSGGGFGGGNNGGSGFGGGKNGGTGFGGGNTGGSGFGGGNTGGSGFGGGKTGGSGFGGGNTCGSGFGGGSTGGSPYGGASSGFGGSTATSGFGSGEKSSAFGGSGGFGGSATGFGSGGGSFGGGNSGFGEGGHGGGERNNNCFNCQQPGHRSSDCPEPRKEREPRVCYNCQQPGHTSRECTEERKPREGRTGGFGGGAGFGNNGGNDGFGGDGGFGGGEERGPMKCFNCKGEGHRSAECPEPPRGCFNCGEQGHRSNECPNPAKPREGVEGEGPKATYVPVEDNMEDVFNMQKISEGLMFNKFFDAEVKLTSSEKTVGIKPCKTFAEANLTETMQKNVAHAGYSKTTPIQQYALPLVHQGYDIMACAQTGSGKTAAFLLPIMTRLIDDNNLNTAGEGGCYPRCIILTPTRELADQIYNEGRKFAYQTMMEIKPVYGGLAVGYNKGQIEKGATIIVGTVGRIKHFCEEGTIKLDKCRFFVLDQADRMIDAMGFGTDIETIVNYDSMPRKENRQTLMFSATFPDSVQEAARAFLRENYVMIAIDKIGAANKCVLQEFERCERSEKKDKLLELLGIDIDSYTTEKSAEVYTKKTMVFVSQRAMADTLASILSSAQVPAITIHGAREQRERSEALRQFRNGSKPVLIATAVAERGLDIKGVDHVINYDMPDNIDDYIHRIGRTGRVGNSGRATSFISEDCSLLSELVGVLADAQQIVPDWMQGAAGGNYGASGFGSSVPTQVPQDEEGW
In words: EMSA; 2 mM ATP, 2 mM MgCl2; 10 uM protein, 2 uM RNA; strong ATP-dependent binding; 25 mM HEPES pH 7.4, 150 mM NaCl, 2 mM MgCl2, +/- 2 mM ATP, 30 min at RT; native 8% PAGE in TBE, cold room. As to conditions: protein: recombinant; tags: FLAG; label: 5'-Cy3 (Methods); single strand. A general note: A gel shift assay detects complexes by their altered migration in electrophoresis.

B1: 22-nt ssRNA oligo (ssRNA)
RNA: GUCAAAGAUAGCCUUGACCUUG
On to B1, for which the binding result is recorded as “binds”.
